B1: Tripartite motif-containing protein 5 (Homo sapiens), Q9C035-4 (parent)
chain: MASGILVNVKEEVTCPICLELLTQPLSLDCGHSFCQACLTANHKKSMLDKGESSCPVCRISYQPENIRPNRHVANIVEKLREVKLSPEGQKVDHCARHGEKLLLFCQEDGKVICWLCERSQEHRGHHTFLTEEVAREYQVKLQAALEMLRQKQQEAEELEADIREEKASWKTQIQYDKTNVLADFEQLRDILDWEESNELQNLEKEEEDILKSLTNSETEMVQQTQSLRELISDLEHRLQGSVMELLQGVDGVIKRTENVTLKKPETFPKNQRRVFRAPDLKGMLEVFRELTDVRRYWGWSAMARSRFTATSTSQIQAILLPQPPK
partner: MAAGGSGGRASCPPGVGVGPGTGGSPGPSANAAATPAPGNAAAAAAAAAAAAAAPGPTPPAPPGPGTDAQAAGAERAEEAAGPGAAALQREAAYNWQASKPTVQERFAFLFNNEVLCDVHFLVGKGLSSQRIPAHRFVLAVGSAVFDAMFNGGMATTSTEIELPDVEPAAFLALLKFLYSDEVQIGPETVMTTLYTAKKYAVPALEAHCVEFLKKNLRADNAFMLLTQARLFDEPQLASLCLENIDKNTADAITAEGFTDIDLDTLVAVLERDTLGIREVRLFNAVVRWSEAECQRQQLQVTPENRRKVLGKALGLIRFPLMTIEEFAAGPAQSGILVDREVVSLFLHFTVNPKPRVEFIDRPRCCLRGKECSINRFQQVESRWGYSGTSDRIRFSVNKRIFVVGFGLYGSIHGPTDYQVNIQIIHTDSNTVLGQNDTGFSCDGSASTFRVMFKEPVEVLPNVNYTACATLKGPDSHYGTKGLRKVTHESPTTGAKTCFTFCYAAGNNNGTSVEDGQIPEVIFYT

Variants of: B1
Details: with btbd2_human BTBD2, Q9BX70

effect of a mutation on the interaction | Variant
decreasing interaction | MASGILVNVKEEVTAPIALELLTQPLSLDCGHSFCQACLTANHKKSMLDKGESSCPVCRISYQPENIRPNRHVANIVEKLREVKLSPEGQKVDHCARHGEKLLLFCQEDGKVICWLCERSQEHRGHHTFLTEEVAREYQVKLQAALEMLRQKQQEAEELEADIREEKASWKTQIQYDKTNVLADFEQLRDILDWEESNELQNLEKEEEDILKSLTNSETEMVQQTQSLRELISDLEHRLQGSVMELLQGVDGVIKRTENVTLKKPETFPKNQRRVFRAPDLKGMLEVFRELTDVRRYWGWSAMARSRFTATSTSQIQAILLPQPPK [C15A;C18A]

From IntAct's records for PubMed 12878161
